Laboratory results reported in patent US20130089544A1.

Assays:
[1] = molecular target: human ErbB2 ECD-myc/His fusion protein (human) (UniProt P04626); experiment: SPR, Biacore T100 high resolution; mAb captured on goat anti-human IgG, hHer-2(ECD)cMyc injected; 1:1 fit
[2] = molecular target: human ErbB2, full length, on cells (human) (UniProt P04626); experiment: cell-based or functional assay

Kd [1]: 3.2 nM
% Inhibition @10 µg/ml, Heregulin-induced MCF7 cell proliferation [2]: 90%
EC50 (ng/ml) n1, inhibition of Heregulin-induced ErbB2 phosphorylation in MCF7 cells [2]: 43.6 ng/mL
EC50 (ng/ml) n2, inhibition of Heregulin-induced ErbB2 phosphorylation in MCF7 cells [2]: 14.6 ng/mL
EC50 (ng/ml), inhibition of Heregulin-induced MCF7 cell proliferation [2]: 404 ng/mL
EC50 (ng/ml), inhibition of SKBR3 cell proliferation [2]: > 36000 ng/mL
N1 % Inhibition @40 µg/ml, BT474 cell proliferation [2]: -9%
N1 EC50 (ng/ml), inhibition of BT474 cell proliferation [2]: > 40000 ng/mL
N2 EC50 (ng/ml), inhibition of BT474 cell proliferation [2]: 4750 ng/mL
Substance: chimeric anti-hErbB2 antibody 2C4
